Source: US10280218B2, “Antibodies binding to BMP4, and uses thereof” (ACADEMISCH MEDISCH CENTRUM, priority 2014, dated 2019)

Tests used:
BMP4 [1] = target: T1, BMP4 (human); assay: SPR
T1 chain: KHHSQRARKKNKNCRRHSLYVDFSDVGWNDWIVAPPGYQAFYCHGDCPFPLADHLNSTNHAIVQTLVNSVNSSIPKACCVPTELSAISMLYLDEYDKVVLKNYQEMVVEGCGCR

[2] = tested on: mouse intestinal organoids; assay: Ex vivo mouse intestinal organoid culture (number and growth of organoids); type: cell-based; conditions: VHHs in place of Fc-Noggin, 5 days
Procedure: (§1) Finally, the VHHs were tested in an intestinal organoid culture system for their ability to neutralize the function of BMP4 ex vivo. Inhibition of BMP activity is one of the requirements to maintain Intestinal Stem Cells in vitro cultured as “organoids” that mimic crypt-villus structures and is usually provided by the addition of Noggin to the media. Murine small intestine organoids were cultured in the presence or absence of the VHH biheads and compared to Noggin. To precisely determine which BMPs are present in these cultures, BMP secretion was measured in the conditioned media of intestinal organoids grown without Noggin for three days. Whereas BMP2, BMP4 and BMP6 could be detected by ELISA (FIG. 14A), BMP5 levels were negative, most likely due to the low sensitivity of the ELISA assay (>250 pg/mL), and not due to the lack of BMP5 in these cultures. Indeed, analysis of the protein lysates of these organoids, detected the presence of BMP2, BMP4, BMP5 and BMP6 (FIG. 14B). Next, freshly isolated crypts from murine small intestines were cultured with the VHHs and tested for their ability to provide endogenous BMP inhibition and to sustain organoid cultures ex vivo. […]
(§2) Organoids were cultured as previously described (Sato et al., 2009). […] Crypts were counted and resuspended in matrigel. […]

BMP7 = target: T2, BMP7 (Homo sapiens, UniProt P18075); assay: BMP specificity of VHH antibodies (summary of binding and inhibition of BMP function); set-up: key: ●▪: Binding and inhibition of BMP function.; ●□: Binding, but no inhibition.; ○: No binding; conditions: summary of SPR and functional experiments
T2 sequence (P18075 293-431): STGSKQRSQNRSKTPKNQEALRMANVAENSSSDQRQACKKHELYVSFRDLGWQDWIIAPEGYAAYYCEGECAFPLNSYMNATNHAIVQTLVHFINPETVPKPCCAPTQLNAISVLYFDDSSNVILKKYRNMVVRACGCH
Excerpt: (§3) Thus, we have generated several VH Hs that can be classified into four groups (Table 3): BMP4, BMP2/4, BMP2/4/5 and BMP2/4/5/6-specific.

BMP5 = target: T3, BMP5 (Homo sapiens, UniProt P22003); assay: as above; set-up: key: ●▪: Binding and inhibition of BMP function.; ●□: Binding, but no inhibition.; ○: No binding; conditions: summary of SPR and functional experiments
T3 sequence (P22003 317-454): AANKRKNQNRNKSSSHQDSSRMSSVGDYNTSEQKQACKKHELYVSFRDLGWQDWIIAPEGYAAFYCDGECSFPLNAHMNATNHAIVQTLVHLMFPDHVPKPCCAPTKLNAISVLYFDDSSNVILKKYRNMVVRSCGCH
Excerpt: as §3

BMP2 = target: T4, BMP2 (Homo sapiens, UniProt P12643); assay: as above; set-up: key: ●▪: Binding and inhibition of BMP function.; ●□: Binding, but no inhibition.; ○: No binding; conditions: summary of SPR and functional experiments
T4 sequence (P12643 283-396): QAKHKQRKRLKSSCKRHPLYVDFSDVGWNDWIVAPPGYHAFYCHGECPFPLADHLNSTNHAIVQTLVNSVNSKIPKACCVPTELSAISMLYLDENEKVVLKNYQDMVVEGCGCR
Excerpt: as §3

BMP6 = target: T5, BMP6 (Homo sapiens, UniProt P22004); assay: as above; set-up: key: ●▪: Binding and inhibition of BMP function.; ●□: Binding, but no inhibition.; ○: No binding; conditions: summary of SPR and functional experiments
T5 sequence (P22004 375-513): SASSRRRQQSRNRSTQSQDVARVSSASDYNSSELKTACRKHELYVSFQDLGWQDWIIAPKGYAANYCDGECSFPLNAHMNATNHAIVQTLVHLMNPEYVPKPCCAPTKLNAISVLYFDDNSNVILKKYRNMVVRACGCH
Excerpt: as §3

endogenous BMP activity = assay: BRE-luciferase activity of supernatants of mouse intestinal organoid cultures; type: cell-based; conditions: supernatants of day 3; C4C4 100 ng/ml, C8C8 500 ng/ml or 5 μg/ml
Procedure: as §1, §2

BMP4 [3] = target: T6, BMP4 (Homo sapiens, UniProt P12644); assay: BMP specificity of VHH antibodies (summary of binding and inhibition of BMP function); set-up: purchased R&D systems; key: ●▪: Binding and inhibition of BMP function.; ●□: Binding, but no inhibition.; ○: No binding; conditions: summary of SPR and functional experiments
T6 sequence (P12644 293-408): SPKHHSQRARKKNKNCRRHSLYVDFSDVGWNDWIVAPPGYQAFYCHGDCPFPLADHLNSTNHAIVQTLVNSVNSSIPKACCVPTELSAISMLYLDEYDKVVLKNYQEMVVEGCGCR
Excerpt: as §3

B1: hNoggin (protein)
chain: QHYLHIRPAPSDNLPLVDLIEHPDPIFDPKEKDLNETLLRSLLGGHYDPGFMATSPPEDRPGGGGGAAGGAEDLAELDQLLRQRPSGAMPSEIKGLEFSEGLAQGKKQRLSKKLRRKLQMWLWSQTFCPVLYAWNDLGSRFWPRYVKVGSCFSKRSCSVPEGMVCKPSKSVHLTVLRWRCQRRGGQRCGWIPIQYPIISECKCSC
- Kd (BMP4 [1]): 0.091 nM

B2: C8E7: E7 linked to C8, hetero-dimer VHH bihead (protein)
chain: EVQLVESGGGLVQAGGSLRLSCAASGRTFRINDMGWYRQAPGKSRDMVARITSGGNTNYADSVKGRFTISRDNAKNTVYLQMNSLKPEDTAVYYCNADGLRFDSTRYRPFDSWGQGTQVTVSSGGGGSGGGGSEVQLVESGGGLVQAGGSLRLSCAASGSIRGFVAMAWYRQAPGKQREWVATVTNGGTLYGDSVKGRFTGSRDNAKNTVYLQMNSLKPEDTAVYYCALRQIGASGYDYWGQGTQVTVSS
- maintenance of organoid culture growth / stem cell proliferation [2]: able to maintain culture growth of organoids
- BMP7: binding and inhibition of BMP function (BMP7): ●□
- BMP5: binding and inhibition of BMP function (BMP5): ●▪
- BMP2: binding and inhibition of BMP function (BMP2): ●▪
- BMP6: binding and inhibition of BMP function (BMP6): ●□
- inhibition of endogenous BMP activity ex vivo (BRE-luciferase activity of organoid supernatants) (endogenous BMP activity): to the same level as the natural inhibitor Noggin
- BMP4: binding and inhibition of BMP function (BMP4 [3]): ●▪
